Experimental data: paper PMC10174300

Biological target: T cell immunoglobulin-3 (TIM-3) (human (endogenous in CD3+ T cells from PBMCs)) (UniProt Q8TDQ0)

Chain of Galectin-9 (O00182 whole entry): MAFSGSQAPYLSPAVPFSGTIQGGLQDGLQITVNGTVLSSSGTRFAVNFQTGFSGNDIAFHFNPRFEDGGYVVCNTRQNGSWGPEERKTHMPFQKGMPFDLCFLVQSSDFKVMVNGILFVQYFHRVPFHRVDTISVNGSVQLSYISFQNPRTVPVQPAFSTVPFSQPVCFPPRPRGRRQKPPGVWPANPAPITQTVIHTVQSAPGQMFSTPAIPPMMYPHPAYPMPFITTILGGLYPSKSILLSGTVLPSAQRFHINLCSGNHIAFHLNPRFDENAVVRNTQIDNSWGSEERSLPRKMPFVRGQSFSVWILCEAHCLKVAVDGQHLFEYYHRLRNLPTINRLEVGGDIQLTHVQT

T cell proliferation (DELFIA, TRF intensity) of activated CD3+ T cells treated with Galectin-9 at 55.6 nM, against activated T cells without Galectin-9: 50%
Substance: Galectin-9 (from UniProt O00182 1-355) (ligand)
